Results on four proteins are retold here after patent publication US20190016822A1 (MEDITOPE BIOSCIENCES, published 2019).

Series [1] deals with the molecule itself. Nature of the series: size-exclusion chromatography; self-crosslinking.
Series [2] deals with the molecule itself. The series can be described thus: size-exclusion chromatography; self-association.

B1: SnAP-body variant 1 (anti-CD33) (antibody, human IgG1, kappa)
heavy: not shown
light: QIVLTQSPAIMSASPGEKVTITCSASSSISYMHWFQQRTNGSPRLWIYTTSNLASGVPARFSGSGSGTSYSLTISRMEAEDEADYYCHQRSTYPLTFGAGTKLELKRTVAAPSVFIFPPSDEQLKSGTASVVCLLNNFYPREAKVQWKVDNALQSGNSQESVTEQDSKDSTYSLSSTLTLSKADYEKHKVYACEVTHQGLSSPVTKSFNRGEC
notes: also called self-crosslinking antibody; Anti-CD33 SnAP-body variant 1
Take B1: the binding result in series [1] is “binds”.

B2: SnAP-body variant 2 (anti-CD33) (antibody, human IgG1, kappa)
heavy: not shown
light: QIVLTQSPAIMSASPGEKVTITCSASSSISYMHWFQQRTNGSPRLWIYTTSNLASGVPARFSGSGSGTSYSLTISRMEAEDEADYYCHQRSTYPLTFGAGTKLELKRTVAAPSVFIFPPSDEQLKSGTASVVCLLNNFYPREAKVQWKVDNALQSGNSQESVTEQDSKDSTYSLSSTLTLSKADYEKHKVYACEVTHQGLSSPVTKSFNRGEC
notes: also called self-crosslinking antibody; Anti-CD33 SnAP-body variant 2
On to B2, for which the binding result in series [1] is on record as “binds”.

B3: SnAP-body variant 3 (anti-CD33) (antibody, human IgG1, kappa)
heavy: not shown
light: QIVLTQSPAIMSASPGEKVTITCSASSSISYMHWFQQRTNGSPRLWIYTTSNLASGVPARFSGSGSGTSYSLTISRMEAEDEADYYCHQRSTYPLTFGAGTKLELKRTVAAPSVFIFPPSDEQLKSGTASVVCLLNNFYPREAKVQWKVDNALQSGNSQESVTEQDSKDSTYSLSSTLTLSKADYEKHKVYACEVTHQGLSSPVTKSFNRGEC
notes: also called self-crosslinking antibody
As for B3, the binding result in series [1] was “binds”.

B4: control antibody (meditope-enabled gemtuzumab IgG1 without meditope or linker) (antibody)
heavy: not shown
light: QIVLTQSPAIMSASPGEKVTITCSASSSISYMHWFQQRTNGSPRLWIYTTSNLASGVPARFSGSGSGTSYSLTISRMEAEDEADYYCHQRSTYPLTFGAGTKLELKRTVAAPSVFIFPPSDEQLKSGTASVVCLLNNFYPREAKVQWKVDNALQSGNSQESVTEQDSKDSTYSLSSTLTLSKADYEKHKVYACEVTHQGLSSPVTKSFNRGEC
notes: IgG1; also called control gemtuzumab antibody; gemtuzumab control antibody
Turning to B4, the binding result in series [2] is “no binding”.
